Measurements reported in PMC2233640, “Human NCU-G1 can function as a transcription factor and as a nuclear receptor co-activator”.

Molecular target: T1, NCU-G1 (kidney predominant protein), GST fusion (Homo sapiens, UniProt Q8WWB7 1-406)
T1 sequence: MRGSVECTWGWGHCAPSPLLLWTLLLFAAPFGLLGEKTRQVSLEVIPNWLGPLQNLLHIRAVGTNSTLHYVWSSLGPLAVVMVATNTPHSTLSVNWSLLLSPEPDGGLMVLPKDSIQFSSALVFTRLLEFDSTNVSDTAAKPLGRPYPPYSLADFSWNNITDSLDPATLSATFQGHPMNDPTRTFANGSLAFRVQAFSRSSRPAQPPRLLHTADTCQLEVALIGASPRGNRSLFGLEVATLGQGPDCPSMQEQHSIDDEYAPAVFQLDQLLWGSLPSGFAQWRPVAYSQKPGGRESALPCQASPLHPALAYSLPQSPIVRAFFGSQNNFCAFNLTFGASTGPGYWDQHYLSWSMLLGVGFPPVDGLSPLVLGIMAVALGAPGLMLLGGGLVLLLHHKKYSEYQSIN
Experiment: competition; 50-fold molar excess unlabeled vs 32P-FP1, EMSA; EMSA: 3 x 10^4 cpm 32P probe with 2 ug GST-NCU-G1; buffer, salt, pH and temperature not given (as described in ref 17)
Conditions: protein: recombinant; tags: N-terminal GST (pGEX-5X-3); double-stranded

B1: AP1 oligonucleotide (dsDNA)
DNA 1: CGCTTGATGACTCAGCCGGAA
DNA 2: TTCCGGCTGAGTCATCAAGCG
Q: Does B1 bind?
A: no binding
